# Experimental data reported in publication PMC9181698.
# B1: unnamed (parent)
# chain 1: DKEWILQKIYEIMRLLDELGHAEASMRVSDLIYEF
# chain 2: not shown
# Variants of: B1
# Settings: with partner chain of the complex shown; 12 nM peptide; read off a plot
row,Variant,screen value [%]
1,chain 1 L15A,4.5
2,chain 1 L19A,1.7
3,chain 1 E34A,20
4,chain 1 G20A,66
5,chain 1 L31A,18
6,chain 1 Y10A,18
7,chain 1 I5A,3
8,chain 1 D1A,4.5
9,chain 1 L16A,23
10,chain 1 R14A,24
11,chain 1 E3A,4.5
12,chain 1 S29A,49
13,chain 1 R27A,3
14,chain 1 H21A,31
15,chain 1 I12A,7
16,chain 1 I32A,46
17,chain 1 K2A,47

row,Variant,screen value [%]
1,chain 1 E11A,26
2,chain 1 M13A,92
3,chain 1 E23A,50
4,chain 1 D17A,14
5,chain 1 W4A,3.7
6,chain 1 V28A,8.5
7,chain 1 F35A,23
8,chain 1 Q7A,19
9,chain 1 S25A,9
10,chain 1 K8A,19
11,chain 1 M26A,67
12,chain 1 Y33A,86
13,chain 1 I9A,3
14,chain 1 E18A,1
15,chain 1 D30A,96
16,chain 1 L6A,69
